Measurements reported in paper PMC2119935.

Molecular target: F-actin (polymerised rabbit skeletal muscle actin) (rabbit) (UniProt P68135)
Experiment: co-sedimentation

Kd: 18 µM
Substance: GST-ΔFok fusion protein (c-Abl type IV amino acids 1015-1142 fused to GST) (domain or fragment)
